± gives the uncertainty stated by the source.
Key:
[1] = amyloid nucleation score (Sup35N fusion, yeast selection) (log enrichment); library NNK1; higher = more nucleation; inactive = no reads after selection
Method in brief: (§1)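 The nucleation score is a DiMSum log enrichment of output over input reads, centred on the mode score of non-aggregating sequences. Sequences under 100 input reads were excluded, and reads came from Illumina sequencing of plasmid inserts. Psi-negative yeast expressing Sup35N fused to peptides of 20 random codons were induced with 100 μM copper sulfate for 24 hours and grown 7 days at 30°C on medium lacking adenine and uracil. Random libraries had three technical output replicates.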

[2] = amyloid nucleation score (Sup35N fusion, yeast selection) (log enrichment); library NNK2; higher = more nucleation; inactive = no reads after selection
Method in brief: as §1

| Substance | amyloid nucleation score [1] | amyloid nucleation score [2] |
| --- | --- | --- |
| SSIAAIVM | 0.723 ± 0.41 |  |
| WVLAVRTSNLCRRGMLYKL | -0.662 ± 0.45 |  |
| TMIGILWCSYINVALYSGGL | 1.22 ± 0.28 |  |
| GDCTLVMLINE | 0.011 ± 0.28 |  |
| NGKVYVELKEWDLRVVGSLR | 4.44 ± 0.095 |  |
| LHCYFAFDLLWIALRTTVRI | -0.457 ± 1 |  |
| HQTCCLWSTVVLGV | 3.04 ± 0.15 |  |
| FPEFIVFRMRIVYIVSFRTW | 1.06 ± 0.47 |  |
| QRMLHAYLCVNWAELTHIRV | 0.034 ± 0.6 |  |
| ISEVFD | -0.237 ± 0.24 |  |
| LHLNLLAQDHLCREMTAAMS | -0.771 ± 1.7 |  |
| PVLLRSIIF | -0.346 ± 0.36 |  |
| TGYRFLSIIIAAADSDCELS | -0.706 ± 1.2 |  |
| INRFTICTFHWTGFALNALS | 2.26 ± 0.17 |  |
| VITWEWFRFRRRFGKMEGCL | 1.24 ± 0.28 |  |
| KERIFPLTTEAMKLERKA | -0.341 ± 0.57 |  |
| RFMYAISSVTRYPMWPGMMQ | 2.45 ± 0.18 |  |
| DKNML | 1.44 ± 0.54 |  |
| EWRFCKS | -0.335 ± 0.33 |  |
| SILIRLIISTINCCVNNVAF | 5.43 ± 0.083 |  |
| FIIDYKTDKRSEFWL | 0.215 ± 0.35 |  |
| YLVFMQEITLTKQLLWQSMR | -0.224 ± 0.39 |  |
| FALVRTLTRSKSSFTTSQIK | 0.524 ± 0.47 |  |
| LSPSSMN | inactive |  |
| VVCFMPVLMAVQMGCSHWNY | 3.55 ± 0.063 |  |

| Substance | amyloid nucleation score [1] | amyloid nucleation score [2] |
| --- | --- | --- |
| STFGPCEVLVVQVDGPAYHT | -0.37 ± 0.55 |  |
| APPLSFEFL | 3.06 ± 0.092 |  |
| SLYVKWSQILLPLVLYVWYY | 0.232 ± 0.45 |  |
| WVGFRQCLSASMCAPDPQTD | 0.748 ± 0.8 |  |
| AIQCSTARNDVECKLFTYVL | 0.086 ± 0.71 |  |
| RGLLYS | 0.768 ± 0.75 |  |
| YWTSIHSLNTSIP | -0.229 ± 0.62 |  |
| GIGAVSAC | 0.317 ± 0.56 |  |
| DLEIAGREGS | -0.322 ± 0.55 |  |
| IMETHLFLTETGNLLSKMGD | inactive |  |
| MKMRFVVSLMNSERSSGRNE | 0.9 ± 0.5 |  |
| GMVFF | 0.643 ± 0.58 |  |
| TCLISCRLPDKGHGSVT | -0.069 ± 0.44 |  |
| SWDLGREYSGHRMTCLVWLV | -0.403 ± 0.68 |  |
| MCPSIQCYNNYILLQRSVIR | 7.08 ± 0.073 |  |
| GRGSMLFW | 0.942 ± 0.58 |  |
| LMEFHLYQMYSLRLVARRWW | 1.32 ± 0.38 |  |
| VSCRR | inactive |  |
| TNWAVKGWAVECRRHSGPNT | 1.45 ± 0.79 |  |
| KCRKASMSSPILDLCTRMRC | -1.18 ± 1.9 |  |
| IYLNFLPVVPCRFFCIRTWG | inactive |  |
| DFDNEGLWCS | -0.217 ± 0.42 |  |
| YTDAIYHPIPRTGMYSWC | -0.194 ± 0.34 |  |
| DAEFRHDSGYEVHHQKLVFF | 2.91 ± 0.19 |  |
| CGLLWSCSKLH | 1.56 ± 0.42 |  |

| Substance | amyloid nucleation score [1] | amyloid nucleation score [2] |
| --- | --- | --- |
| YQVYWSVSG | -0.021 ± 0.51 |  |
| LLCYCVAELLDNTRRAT | 0.328 ± 0.57 |  |
| RRVGWLRTRSG | 0.731 ± 0.41 |  |
| TRNSDASGNCCVTGRDV | -0.849 ± 0.45 |  |
| VRNHVYGLCVSWTAGDKCNR | 5.03 ± 0.087 |  |
| RLWIVPLGLWCLRHRVCCRP | -0.246 ± 0.65 |  |
| FFVFSSLGHLV | 0.859 ± 0.26 |  |
| GSHTGEFRYVF | -0.83 ± 0.42 |  |
| TQKHCY | 0.326 ± 0.33 |  |
| GFFDSCLEMFTLSTYFCTFY | 2.86 ± 0.096 |  |
| VDVMRVVLNLNCSRTSVIYM | 5.938 ± 0.048 |  |
| CRCFGRFLVITSI | inactive |  |
| GKFSDSHIVA | 0.308 ± 0.46 |  |
| DNKGYL | -0.977 ± 1 |  |
| CFGKSSVWHRYRFYIGNRAI | -0.613 ± 0.75 |  |
| KLRRDSFVFQVKFHLNKGML | -0.384 ± 0.46 |  |
| LWWYFHRTL | -0.168 ± 0.65 |  |
| SDYMCTKSSIKLNTYIDVKD | -1.6 ± 2.1 |  |
| RNSDSNTVGNRSFWLLGIL | 0.389 ± 0.3 |  |
| LLIDSPCNWCTRGRSCKFSY | inactive |  |
| QGLADNKSSFKGV | 0.591 ± 1 |  |
| CTRFKGFAWTSMLRL | 0.21 ± 0.75 |  |
| KSRGRKSSGDFPIRGD | 4.84 ± 0.062 |  |
| PDNRAINVFTLPVAVS | 0.71 ± 0.44 |  |
| TCVGFSGVGKGNSSIKVKEA | 0.351 ± 0.42 |  |

| Substance | amyloid nucleation score [1] | amyloid nucleation score [2] |
| --- | --- | --- |
| CRQVFLFLVVPKYYNRMLST | -0.251 ± 0.31 |  |
| IYVYQLSFCCKAY | 0.235 ± 0.66 |  |
| WPWNEPY | -0.251 ± 0.48 |  |
| YVCFVQSCFYARQGHMSGEA | 0.165 ± 0.31 |  |
| SMLLSRKHCGGVNEKHFM | -0.311 ± 0.35 |  |
| FNVCLSKESVNLGRD | 0.486 ± 0.39 |  |
| SSYFMVYYQRVTSCFMVGFL | -0.865 ± 0.48 |  |
| IYTRFFNTV | -0.222 ± 0.36 |  |
| LYLSWSFSALSV | -0.593 ± 1.2 |  |
| NNLVFHGSKHNIKVRRMEMG | -1.14 ± 2.7 |  |
| LLPLLSMGRTPLRCKPMASS | 0.058 ± 0.3 |  |
| NMRVFWSARRQALFQWRIL | 0.807 ± 0.71 |  |
| YKKGYWSGDVAFVWWFTYMC | 0.959 ± 0.54 |  |
| VEVLWVEDGSQF | -0.559 ± 0.31 |  |
| DVFVY | -0.273 ± 0.45 |  |
| RVLRVFLGDTLFYCQSGSGL | 1.84 ± 0.22 |  |
| TDPLSYTFVTSPVMVTRGSS | -0.942 ± 0.52 |  |
| MQFCVEYTRPVRYQLWGSLM | 0.327 ± 0.83 |  |
| YMISNMVKVVFSSTDRNVGN | 5.935 ± 0.051 |  |
| NTQNRSEVNQGVVGQVR | -0.378 ± 0.36 |  |
| TERDCRCSFGTVPMCSMGNW | 0.595 ± 0.34 |  |
| PGMNSRCCA | 0.48 ± 0.72 |  |
| LNVGVLGGRLLSGALVNSTM | 0.396 ± 0.65 |  |
| LRKNSPTFRGSPCQQWYVER | 1.27 ± 0.56 |  |
| LSISRCSGRAV | inactive |  |

| Substance | amyloid nucleation score [1] | amyloid nucleation score [2] |
| --- | --- | --- |
| LLSGNGQRLSSEQTCRELVG | -0.727 ± 0.28 |  |
| IWRTLWMWSVGTSTNPVHSL | -0.088 ± 0.49 |  |
| SVMFQECFVNEFIGVHRCRD | 6.324 ± 0.047 |  |
| FVLRRLALQ | -0.992 ± 0.39 |  |
| RTRLFYFGPDNNRVRRRGCS | 1.13 ± 0.71 |  |
| CCLTWAPTRDPFCLVTGVCR | 0.193 ± 1.1 |  |
| IGFEIHFMYALE | 0.355 ± 1 |  |
| EEFFMLRVDWIEEANQCKRE | 0.221 ± 0.47 |  |
| YCNGNRKVVEVDFDWILGGG | -0.33 ± 1.1 |  |
| CAACSSQLYCEWFMNALLGM | -0.513 ± 0.44 |  |
| VPWSFLQRSWLDIWECPYKL | -0.276 ± 0.41 |  |
| RCCALTYPLFKHLG | 0.573 ± 0.43 |  |
| FAWSRAACFSIPVRISVSLG | 1.14 ± 0.72 |  |
| ISIQSLRLSSSSWNLTLHCG | 3.25 ± 0.097 |  |
| IHGTMRGYWHMLFQELNIGV | -0.152 ± 0.54 |  |
| IEVDPTNSKKSAPDTHLGSL | -0.001 ± 0.95 |  |
| MYLVDASMSKPLIVLKSCN | 0.686 ± 1.1 |  |
| SVTLIGFILDLRTGHILWYK | -0.423 ± 0.62 |  |
| FDQLEGLRCASSWKLLSSPG | 0.062 ± 0.8 |  |
| MCSERMGFFIVSGVVLKLTH | 0.814 ± 0.57 |  |
| SHLNHEGFRLIQCLIWSLHW | 0.33 ± 0.54 |  |
| KPWLVHMHGSSYNGRADAEV | 0.811 ± 0.61 |  |
| LNALFYLKWALRRWSRKYCE | 1.39 ± 0.79 |  |
| SYMLVRDTLVLRCSACLLAG | inactive |  |
| NPSFNPWNDHHYCTSGMCML | 0.562 ± 0.81 |  |

| Substance | amyloid nucleation score [1] | amyloid nucleation score [2] |
| --- | --- | --- |
| VVQGCIYYCHNVWYLDVFSF | 4.62 ± 0.089 |  |
| LMKCCNVMGCGDDA | 2.45 ± 0.15 |  |
| WSGIIELC | 1.74 ± 0.78 |  |
| NVIFPTYRFVRFPSYMTLGW | inactive |  |
| ANVNSWTRPAIMIVLDWGVP | 0.868 ± 0.58 |  |
| LAMPLFPLQDGSW | inactive |  |
| DKRIARLNPRIGTSVSWDVS | 0.89 ± 0.5 |  |
| FWGFVGTVMLLKCVFHGVSA | 0.628 ± 0.63 |  |
| RNMLELSFWCYEMKNSSSWS | 1.15 ± 0.24 |  |
| VVNITYFPMVSVRLICGNVP | 6.569 ± 0.063 |  |
| YEDLSNDYNSNRWIVYALSK | -0.189 ± 0.24 |  |
| RPGMEADLLVNLPLF | 0.958 ± 0.72 |  |
| GIAVGS | 0.413 ± 0.49 |  |
| LFPRVMN | 0.338 ± 0.58 |  |
| LQLCLPVFNHVMHVNWMRFY | -0.837 ± 2.4 |  |
| DIFRIYMWVHCMDRHSDGTV | 2.29 ± 0.27 |  |
| VIPKGPSKTLNNFWYYAYHS | -0.327 ± 0.79 |  |
| IWWFGSILFLRQSWYKIWSC | -0.877 ± 0.39 |  |
| MSDRKCKKDSRYLWRDLLPE | 0.264 ± 0.46 |  |
| IWVSLDYMKSGNGNFTDSFC | 2.82 ± 0.12 |  |
| QFSHCWMSRRSGVNSAGRSG | -0.238 ± 0.39 |  |
| LGICLLCTDIWDRVGNLCSL | -0.041 ± 0.33 |  |
| KGKPYFAEMLHIMSFVWSSD | 1.3 ± 0.6 |  |
| FFSSNNRWRTLYNLHCSEFA | 0.24 ± 0.56 |  |
| IIFWGLCICHPVLPTRGGWE | 7.26 ± 0.084 |  |

| Substance | amyloid nucleation score [1] | amyloid nucleation score [2] |
| --- | --- | --- |
| LVSMVWLPM | 0.167 ± 0.84 |  |
| TCGRGHVTRGYWGTMCGCNG | 1.06 ± 0.72 |  |
| MPLAKSPLTLG | 4.39 ± 0.062 |  |
| IANGHKSSRCMQKDSSTS | 0.586 ± 0.35 |  |
| SCCWVSIDSNQCHRACTVRT | -0.136 ± 0.56 |  |
| TFSDFIQKGWRFIFKYPFRC | 0.686 ± 0.35 |  |
| RLTDRHLLWIIMQELNGFLV | -1.09 ± 2.7 |  |
| VAFWLLC | 0.219 ± 0.38 |  |
| ARLDRSFR | 0.451 ± 0.55 |  |
| SYGNCVRCSLMYKGKHMLNT | 0.022 ± 0.52 |  |
| ALFYLSCQPSTGALESRYLG |  | 1.73 ± 0.29 |
| VLYWCPRDSKTWLSGRLLPM |  | 1.33 ± 0.47 |
| TMYWTAMMISGDLACQIGSR |  | 6.127 ± 0.046 |
| WMIGRCD |  | 0.319 ± 0.61 |
| SFGWAYSVICLFIALTRTFL |  | -0.123 ± 0.26 |
| CIGIWDAIEVVENREL |  | -0.545 ± 0.64 |
| SVLMDYNSKWWDRMSSFIRP |  | -0.272 ± 0.48 |
| RSTISYDSSAQYCGGWLGLW |  | -0.717 ± 1 |
| AFPKLRAGSSLLCA |  | 0.74 ± 0.29 |
| GVLYLFTVTVMDKKFTM |  | 3.5 ± 0.077 |
